These results are taken from article PMC2873477, “Reconstruction of xylose utilization pathway and regulons in Firmicutes” (BMC Genomics, 2010).

In one data set the target is T1, XylB (Clostridium acetobutylicum, UniProt Q97FW4).
T1 construct: full-length coding region, N-terminal His6 tag (pET28a), E. coli BL21(DE3), Ni-NTA purified
T1 sequence (Q97FW4 1-500): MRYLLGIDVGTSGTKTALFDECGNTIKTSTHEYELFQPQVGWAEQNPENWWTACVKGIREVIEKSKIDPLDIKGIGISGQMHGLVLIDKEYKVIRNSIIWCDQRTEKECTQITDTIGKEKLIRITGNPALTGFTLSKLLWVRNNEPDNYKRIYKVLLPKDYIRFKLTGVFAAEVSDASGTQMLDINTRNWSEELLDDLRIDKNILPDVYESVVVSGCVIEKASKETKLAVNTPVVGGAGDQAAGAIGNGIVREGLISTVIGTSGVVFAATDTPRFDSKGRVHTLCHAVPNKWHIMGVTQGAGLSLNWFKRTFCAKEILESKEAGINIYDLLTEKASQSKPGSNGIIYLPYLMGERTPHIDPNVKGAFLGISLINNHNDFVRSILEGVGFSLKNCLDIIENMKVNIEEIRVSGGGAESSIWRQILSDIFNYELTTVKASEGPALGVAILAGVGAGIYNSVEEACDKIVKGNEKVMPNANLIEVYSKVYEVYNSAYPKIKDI
The data set is described as follows: coupled pyruvate kinase / lactate dehydrogenase assay, NADH at […] nm. The data set is classed as biochemical. The note with it: 50 mM Tris pH 7.5, 10 mM MgSO4, 1.2 mM ATP, 1 mM D-xylulose.

For data set [1], the target named is T2, XylR (Clostridium acetobutylicum ATCC 824) (UniProt Q97D10).
T2 sequence: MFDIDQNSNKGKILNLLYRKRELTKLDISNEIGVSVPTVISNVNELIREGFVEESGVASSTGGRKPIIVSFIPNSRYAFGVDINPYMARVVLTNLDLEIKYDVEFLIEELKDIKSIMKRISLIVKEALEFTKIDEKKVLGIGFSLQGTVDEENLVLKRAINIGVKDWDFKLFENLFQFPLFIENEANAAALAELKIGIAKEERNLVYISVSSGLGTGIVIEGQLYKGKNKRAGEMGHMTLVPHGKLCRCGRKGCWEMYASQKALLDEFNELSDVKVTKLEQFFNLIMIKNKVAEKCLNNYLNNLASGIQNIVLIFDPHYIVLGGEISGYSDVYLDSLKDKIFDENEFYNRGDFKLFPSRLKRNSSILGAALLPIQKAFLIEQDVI
The data set is described as follows: EMSA. The note with it: 10 mM Tris pH 7.5, 50 mM KCl, 1 mM DTT, 2.5% glycerol, 5 mM MgCl2, 0.05% NP-40, 2 ug salmon sperm DNA in 20 ul, 28 C 20 min; 6% native PAGE 0.5x TBE at 4 C.

For `Nc1ncnc2c1ncn2[C@@H]1O[C@H](COP(=O)(O)OP(=O)(O)OP(=O)(O)O)[C@@H](O)[C@H]1O` [ATP], at XylB, the “coupled pyruvate kinase / lactate dehydrogenase assay, NADH at 340 nm” value is “coupling the formation of ADP to the oxidation of NADH to NAD^+”. For the molecule “CTCCCCATATAATTTAAATTGGTTTTATTTAAAAAATATCTTACCAATATGATTTAAACTTCTCTAATAAATATATGTTTTTAAAGTTTGTTTAATAAGTTTTTTAGATAATCTACTCTTTAAATAAAAGCGCTCCTACTTTTAACTATTTATATATCTTTTATTTTAGGATAAGCTGAA (double strand) [CAC2611-xylA-II upstream fragment]”, the binding entry in data set [1] was “binds”. Still for that read-out and setting: to “CACCAACCTTAATCACTAGTATTTTACTTTACCTTCATATTGTACCATATACTATATCCCCACAAAAGCCTTTATAAAGTTGTTTTATAAAGTATATATACTATGTATATTTTTTCTTATATAGTTTTAATACAAAAATGAAGTAAAGATATCAATTATATATCTTTACTTCACTTACGT (double strand) [xylR upstream fragment]” belongs “binds”; to “AATCAAACCCCCTTAATTTTAAATAACTTTTTAAATATCCTTTAATAAGTCTATTTTACTTTTTTTACCTCCTACAGTCAATATGTTTTTGTAAACTTTTTCATTTTATTTATATAATGGCTTATATGGCACTGCATTTCACATAAAAATTGTAATAAAAAAAACTGCCCTTAAATTTTC (double strand) [xylB upstream fragment]”, “binds”.
